Results reported in patent CN108290942A.

T1: 细胞实际分泌的信号素3A (UniProt Q14563)
T1 sequence (looked up): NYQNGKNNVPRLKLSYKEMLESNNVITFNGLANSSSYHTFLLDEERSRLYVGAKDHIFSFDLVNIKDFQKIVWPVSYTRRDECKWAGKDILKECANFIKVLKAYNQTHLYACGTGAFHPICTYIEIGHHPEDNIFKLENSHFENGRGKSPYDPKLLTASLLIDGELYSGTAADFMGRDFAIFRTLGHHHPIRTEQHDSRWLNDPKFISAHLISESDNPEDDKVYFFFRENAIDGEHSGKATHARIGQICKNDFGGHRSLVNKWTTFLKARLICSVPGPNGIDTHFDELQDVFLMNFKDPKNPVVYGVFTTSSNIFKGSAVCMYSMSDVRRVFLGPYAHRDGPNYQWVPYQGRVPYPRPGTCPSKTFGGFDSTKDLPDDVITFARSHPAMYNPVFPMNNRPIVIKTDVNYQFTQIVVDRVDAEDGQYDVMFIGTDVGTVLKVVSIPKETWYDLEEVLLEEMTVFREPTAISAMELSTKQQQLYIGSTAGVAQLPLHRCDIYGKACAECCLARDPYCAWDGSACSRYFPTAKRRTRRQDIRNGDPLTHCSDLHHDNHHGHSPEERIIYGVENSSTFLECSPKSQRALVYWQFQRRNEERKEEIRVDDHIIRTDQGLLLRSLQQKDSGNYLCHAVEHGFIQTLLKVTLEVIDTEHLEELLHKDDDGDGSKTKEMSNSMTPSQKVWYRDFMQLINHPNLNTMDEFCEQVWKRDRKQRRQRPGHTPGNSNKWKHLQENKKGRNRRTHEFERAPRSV

B1: 抗信号素3A scFv抗体片段 C10 (scFv, part only; not given: linker and tags, not shown: large carriers)
scFv, part: EVQLLESGGGLVQPGGSLRLSCAASGFTFSDYAMSWVRQAPGKGLEWVSGIYYDDSSQYYADSVEGRFTISRDNSKNTLYLQMNSLRAEDTAVYYCARYLGLFDYWGQGTLVTVSSQSVLTQPPSASGTPGQRVTISCSGSSSNIGNNSVNWYQQLPGTAPKLLIYSDSQRPSGVPDRFSGSKSGTSASLAISGLRSEDEADYYCGSWDYSLSAYVFGGGTKLTVL
B2: 抗信号素3A scFv抗体片段 F11 (scFv, part only; not given: linker and tags, not shown: large carriers)
scFv, part: EVQLLESGGGLVQTGGSLRLSCAASGFTFSDYAMSWVRQAPGKGLEWVSWIYYDSGSKYYADSVKGRFTISRDNSKNTLYLQMNSLRAEDTAVYYCAKLNGDFDYWGQGTLVTVSSQSVLTQPPSASGTPGQRVTISCSGSSSNIGNNDVSWYQQLPGTAPKLLIYADSHRPSGVPDRFSGSKSGTSASLAISGLRSEDEADYYCGAWDSSLSGYVFGGGTKLTVL
B3: 抗信号素3A scFv抗体片段 A08 (scFv, part only; not given: linker and tags, not shown: large carriers)
scFv, part: EVQLLESGGGLVQPGGSLRLSCAASGFTFSDYAMSWVRQAPGKGLEWVSGIYYDDSSQYYADSVKGRFTISRDNSKNTLYLQMNSLRAEDTAVYYCAKNLGRFDYWGQGTLVTVSSQSVLTQPPSASGTPGQRVTISCTGSSSNIGSNAVTWYQQLPGTAPKLLIYDDNHRPSGVPDRFSGSKSGTSASLAISGLRSEDEADYYCGAWDDSLSAYVFGGGTKLTVL

What follows are binders tested against T1, 细胞实际分泌的信号素3A (assay: cell-based or functional assay).

| 细胞迁移 (transwell, 83细胞) [%] | 细胞迁移 (transwell, 131细胞) [%] | 细胞迁移 (transwell, U87-MG细胞, 50μg/ml scFv) [%] | Binder | 细胞生长速度 (EZ-Cytox, 131细胞, 50μg/ml scFv, 4天) [%] |
| --- | --- | --- | --- | --- |
| 44 | 19 | 70 | B1 | 70 |
| 28 | 7 | 74 | B2 | 70 |
| 21 | 11 | 78 | B3 | 70 |
